The values below come from US20210155689A1 (SHANGHAI PHARMAEXPLORER, published 2021).

Assay [1] addresses T1, monkey LAG-3 on cells (HEK293-cLAG-3 stable cell line) (monkey, UniProt P18627 24-525 (human entry)).
T1 construct: Full-length monkey (Chinese monkey) LAG-3 gene expressed on HEK293 cells
T1 chain: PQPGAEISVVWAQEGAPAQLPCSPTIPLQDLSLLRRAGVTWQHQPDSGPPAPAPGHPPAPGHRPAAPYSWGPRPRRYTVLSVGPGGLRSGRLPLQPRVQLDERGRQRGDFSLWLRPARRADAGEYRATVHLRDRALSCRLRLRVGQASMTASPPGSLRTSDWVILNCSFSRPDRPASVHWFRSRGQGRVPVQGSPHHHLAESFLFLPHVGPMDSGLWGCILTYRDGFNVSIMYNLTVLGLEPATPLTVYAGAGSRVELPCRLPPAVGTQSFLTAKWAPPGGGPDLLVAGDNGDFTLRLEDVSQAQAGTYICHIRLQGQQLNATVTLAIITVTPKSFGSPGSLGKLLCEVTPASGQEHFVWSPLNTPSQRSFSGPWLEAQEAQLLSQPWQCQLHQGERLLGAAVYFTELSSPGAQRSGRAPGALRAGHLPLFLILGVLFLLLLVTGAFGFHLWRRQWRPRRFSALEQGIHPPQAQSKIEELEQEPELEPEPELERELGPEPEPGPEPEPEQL
The assay can be described thus: FACS, HEK293-cLAG-3, antibody 200.000 nM. An excerpt:
The pIRES plasmid with the monkey-derived full-length gene was transfected into the HEK293 cell line to construct a HEK293 stable cell line containing monkey LAG-3 (herein referred to as HEK293-cLAG-3 stable cell line). The HEK293-hLAG-3 stable cell line and HEK293-cLAG-3 stable cell line were expanded in a T-75 cell culture flask to a 90% confluence. The medium was aspirated, and the cells were washed with HBSS (Hanks' Balanced Salt Solution) 1-2 times, then treated with a enzyme-free cell dissociation fluid (Versene solution: Life technology) and the cells were collected. The cells were washed with HBSS buffer for 1-2 times. After counted, the cells were diluted with HBSS to 1-2×10⁶ cells per ml, added with 1% goat serum blocking solution, incubated on ice for 20-30 minutes, and then washed with HBSS for 2 times by centrifugation. The collected cells were suspended in the FACS buffer (HBSS+1% BSA) to 2×10⁶ cells/ml, added as 100 microliters per well to a 96-well FACS reaction plate, added with 100 microliters per well of the antibody sample to be tested, incubated on ice for 1-2 hours. The plate was washed twice with the FACS buffer by centrifugation, added with 100 microliters of fluorescent (Alexa 488)-labeled secondary antibodies per well, and incubated on ice for 0.5-1.0 hours. The plate was washed 2-3 times with FACS buffer by centrifugation, added with 100 μl fixative solution (4% Paraformaldehyde) per well to suspend the cells. 5-10 minutes later, it was washed 1-2 times with FACS buffer by centrifugation. The cells were suspended with 100 microliters of FACS buffer, FACS (FACSCalibur, BD) was used for detection and the results were analyzed.
(In general: In flow cytometry, cells or beads pass a laser one at a time.)

The target of assay [2] is T2, LAG-3-hFc protein (human LAG-3 extracellular region with hFc tag) (human, UniProt P18627 23-450).
T2 construct: also called hLAG-3-hFc; LAG-3 protein; not shown: human IgG Fc fragment (hFc) of the pCpC vector
T2 sequence: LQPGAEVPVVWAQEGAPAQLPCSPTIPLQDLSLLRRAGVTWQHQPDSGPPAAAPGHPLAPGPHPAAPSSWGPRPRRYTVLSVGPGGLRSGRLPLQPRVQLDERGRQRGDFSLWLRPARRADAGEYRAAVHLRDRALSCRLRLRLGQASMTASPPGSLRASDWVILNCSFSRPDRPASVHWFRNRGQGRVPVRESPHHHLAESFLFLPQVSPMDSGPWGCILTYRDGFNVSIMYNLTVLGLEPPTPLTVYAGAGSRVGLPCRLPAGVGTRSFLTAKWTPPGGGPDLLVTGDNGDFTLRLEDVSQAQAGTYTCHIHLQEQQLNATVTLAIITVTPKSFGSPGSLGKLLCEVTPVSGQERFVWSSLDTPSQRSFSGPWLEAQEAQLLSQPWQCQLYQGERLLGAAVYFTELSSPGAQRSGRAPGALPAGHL
Put plainly: FACS, inhibition of LAG-3-hFc binding to MHC II on Raji cells, antibody 66.667 nM. On the procedure: (§1) The FACS reaction plate incubating the Raji cells was centrifuged to discard the supernatant. The above mixture was added as 100 μl per well to Raji cells and incubated on ice for 1-2 hours. The plate was washed twice with blocking solution (PBS, 2% fetal bovine serum) by centrifugation, added with 100 microliters of fluorescent (Alexa 488)-labeled secondary antibodies per well, and incubated on ice for 1.0 hours. The plate was washed 2-3 times by centrifugation with blocking solution (PBS, 2% fetal bovine serum), added with 100 microliters of PBS per well to suspend cells, and detected using FACS (FACS Calibur, BD) and the results were analyzed. Wherein, the IgG control was murine IgG, and the data in the table is the inhibition rate (%).

Assay [3] deals with T2, LAG-3-hFc protein (human LAG-3 …). The assay can be described thus: FACS, inhibition of LAG-3-hFc binding to MHC II on Raji cells, antibody 200.000 nM. On the procedure:
as §1

Assay [4] has as its target T3, human LAG-3 protein with hFc tag (hLAG-3-hFc protein) (human, UniProt P18627 23-450).
T3 construct: also called immunogen 1; LAG-3 extracellular domain protein; not shown: human IgG Fc fragment (hFc) of the pCpC vector
T3 sequence: T2 sequence
Put plainly: ELISA, hLAG-3-hFc coated; 0.0001 nM. On the procedure: The plate was sealed with plastic film and incubated overnight at 4° C. The plate was washed 2 times with the plate washing solution (PBS+0.01% Tween20) on the next day, and added with the blocking solution (PBS+0.01% Tween20+1% BSA) and blocked at room temperature for 1-2 hours. The blocking solution was poured out, and the plate was added with 50-100 μl of the antibody sample to be tested to each well, incubated at 37° C. for 1-2 hours, and washed 2-3 times with a plate washing solution (PBS+0.01% Tween20). HRP (horseradish peroxidase) labeled secondary antibody was added, and the plate was incubated at 37° C. for 1-2 hours, and washed 2-3 times with a plate washing solution (PBS+0.01% Tween20). 100 μl of TMB substrate was added to each well. After incubated at room temperature for 15-30 minutes, the plate was added with 100 μl of stop solution (1.0N HCl) to each well.
In general terms: In an ELISA, binding on a coated surface is turned into a signal by an enzyme label.

Residue numbers refer to the chain shown, from its start.

B1: 556F6B8 mouse-human chimeric antibody (antibody, V domains shown)
VH: RVQLKQSGPGLVQPSQSLSITCTVSGFSLIKYGVHWVRQSPGEGLEWLGVIWRGGITDYNAAFMSRLSITKDNSKSQVFFKMNSLQADDTAIYYCAKWDGPLAMDYWGQGTSVTVSS
VL: DIVMTQSHKFLSTSVGDRVSITCKASQDVGTTVAWYQQKPGQSPKLLIYWASTRHTGVPDRFTGSGSGTDFTLTISNVQSEDLADYFCQQYSSYPYTFGGGTKLEIK
notes: also called mAb123-556F6B8; 556F8B8
B1: the Mean fluorescence intensity in assay [1] was 90.5. For the same molecule, the “Inhibition rate (%)” value in assay [2] amounted to 96%; in assay [3], 95.2%.

B2: 556F6B8 (LAG-3 mouse-human chimeric antibody) (antibody, V domains shown)
VH: B1 VH
VL: B1 VL
notes: also called 556F8B8
For the molecule B2, the OD450 in assay [4] is 0.13 OD450.

B3: 105F1E10 mouse-human chimeric antibody (antibody, V domains shown)
VH: EVQLQQSGPELVKPGASVKMSCRASGYTFTDFKMHWMKQSHGKSLEWIGYIAPNNGGTAYNQKFRGKATLTVNESSNTAYMELRSLTSEDSAVYYCVDWDDVDYWGQGTTLTVSS
VL: DIKMTQSPSSMYASLGERVTITCKASQDINSYLSWFQQKSGKSPKTLIYRANRLVDGVPSRFSGSGSGQDYSLTISSLEYEDMGIYYCLQYVEFPLTFGAGTKLELK
notes: also called mAb009-105F1E10
On to B3, for which the Mean fluorescence intensity in assay [1] turned out to be 94.5. In addition, the “Inhibition rate (%)” value in assay [2] and in assay [3] was 96% each time.

B4: 405B8H3 (LAG-3 mouse-human chimeric antibody) (antibody, V domains shown)
VH: QVQLQQSGAELVRPGASVTLSCKASGYTFTDYEMHWVKQTPVHGLEWIGATDPETGNSAYNQKFKGKAIMTADKSSSTAYMELRSLTSEDSAVYYCISTGWNDWGQGTSLTVSS
VL: B3 VL with S40P, N52D, V55L, E81G, V92D, L96Y, A100G, L106I
notes: also called mouse-human chimeric antibody 405B8H3
In assay [4], B4 showed an OD450 of 0.11 OD450.

B5: 405B8H3 mouse-human chimeric antibody (antibody, V domains shown)
VH: B4 VH
VL: B3 VL with S40P, N52D, V55L, E81G, V92D, L96Y, A100G, L106I
notes: also called mAb103-405B8H3
Regarding B5, in assay [1], the Mean fluorescence intensity came to 108. Moreover, the “Inhibition rate (%)” value in assay [2] was 95.8%; in assay [3] it was 95.2%.

B6: 105F1E10 (LAG-3 mouse-human chimeric antibody) (antibody, V domains shown)
VH: B3 VH
VL: B3 VL
B6 displayed an OD450 in assay [4] of 0.13 OD450.

B7: 409B11E12 mouse-human chimeric antibody (antibody, V domains shown)
VH: B4 VH with P41T, G56S, N57Y, M70L, S98A
VL: B3 VL with I2L, S40P, V55L, V92D, L96Y, A100G, L106I
notes: also called mAb104-409B11E12
In turn, B7 had a Mean fluorescence intensity in assay [1] of 114. Also, the “Inhibition rate (%)” value amounted to 95.3% in assay [2] and 94.8% in assay [3].

B8: 409D4E10 mouse-human chimeric antibody (antibody, V domains shown)
VH: B4 VH with Y27N, G56D, S58T, M70L, A72T, S98T, T99S
VL: B3 VL with S40P, V55L, V92N, L96Y, A100G, L106I
notes: also called mAb112-409D4E10
As to B8, the Mean fluorescence intensity in assay [1] amounted to 103. Moreover, the “Inhibition rate (%)” value came out at 95.9% in assay [2] and 95.7% in assay [3].

B9: 409D4E10 (LAG-3 mouse-human chimeric antibody) (antibody, V domains shown)
VH: B4 VH with Y27N, G56D, S58T, M70L, A72T, S98T, T99S
VL: B3 VL with S40P, V55L, V92N, L96Y, A100G, L106I
In assay [4], B9 had an OD450 of 0.13 OD450.

B10: 409B11E12 (LAG-3 mouse-human chimeric antibody) (antibody, V domains shown)
VH: B4 VH with P41T, G56S, N57Y, M70L, S98A
VL: B3 VL with I2L, S40P, V55L, V92D, L96Y, A100G, L106I
B10 gave an OD450 in assay [4] of 0.12 OD450.
